# Source: the DeepSol protein solubility set
# Assay: soluble on expression in E. coli; label from the status in PepcDB or PDB records
row,Sequence,soluble on expression in E. coli
1,SNTPRLSLRTIEPTDYPELAELMDLVFPDVGGSWPRLTIMDLIHQFPDGQICIEDNGKIVGAALTIKVDYNRFSLPHLYTDIITENNVIQNQVTGDAMYGLDVFVHPDYRGLRLGRRLYDARKELCRSKNFKAILAGGRIPNYHQYADELSVAEYIDKVKRRELHDPILSFQLANDFDVKRIMRGYLP,not soluble
2,QCYHGNGQSYRGTFSTTVTGRTCQSWSSMTPHRHQRTPENYPNDGLTMNYCRNPDADTGPWCFTMDPSIRREYCNLTRC,soluble
3,MTIDDSNRLLMDVDQFDFLDDGTAQLSNNKTDEEEQLYKRDPVSGAILVPMTVNDQPIEKNGDKMPLKFKLGPLSYQNMAFITAKDKYKLYPVRIPRLDTSKEFSAYVSGLFEIYRDLGDDRVFNVPTIGVVNSNFAKEHNATVNLAMEAILNELEVFIGRVKDQDGRVNRFYELEESLTVLNCLRTMYFILDGQDVEENRSEFIESLLNWINRSDGEPDEEYIEQVFSVKDSTAGKKVFETQYFWKLLNQLVLRGLLSQAIGCIERSDLLPYLSDTCAVSFDAVSDSIELLKQYPKDSSSTFREWKNLVLKLSQAFGSSATDISGELRDYIEDFLLVIGGNQRKILQYSRTWYESFCGFLLYYIPSLELSAEYLQMSLEANVVDITNDWEQPCVDIISGKIHSILPVMESLDSCTAAFTAMICEAKGLIENIFEGEKNSDDYSNEDNEMLEDLFSYRNGMASYMLNSFAFELCSLGDKELWPVAIGLIALSATGTRSAKKMVIAELLPHYPFVTNDDIEWMLSICVEWRLPEIAKEIYTTLGNQMLSAHNIIESIANFSRAGKYELVKS,soluble
4,MAHHHHHHMGCGGSKPNAVSRDVEEKALYLRGIKESIDKAEGNMLATLHALQALMRSYESTSYSFVELAHGTDGNTSLKAKTFESDMRTLKDSGIMPKLQKDLGQSVSSLGKDIRAKHDKANVVYREMTQANDAYCKLRERVNGIEKSYAKKNKPVSECPSYTKNCKERDVCLARYEGLKKVFLTLVEELRTLIRSYVTAGLTRYAFSTADYAQQLVNSLQKYKSE,soluble
5,AQVDLLNVKGEKVGTLEISDFVFNIDPNYDVMWRYVDMQLSNRRAGTASTKTRGEVSGGGRKPWPQKHTGRARHGSIRSPIWRHGGVVHGPKPRDWSKKLNKKMKKLALRSALSVKYRENKLLVLDDLKLERPKTKSLKEILQNLQLSDKKTLIVLPWKEEGYMNVKLSGRNLPDVKVIIADNPNNSKNGEKAVRIDGLNVFDMLKYDYLVLTRDMVSKIEEVLG,soluble
6,MIKRTLLLAMLPILAHAEELPAPVKAIEKQGITILKSFEAPGGMKGYLGKYQDMGVTIYLTPDGKHAISGYMYNEKGENLSNALIEKEIYAPAGREMWQKMEKASWILDGKKDAPVVLYVFADPFCPYCKQFWQQARPWVESGKVQLRTLLVGVIKPESPATAAAILAAKDPAKTWHDYEASAGKMKLEVPASIPPAQMKVINQNQQLMDDLGANATPAIYYMNKDKILQQVVGLPEKAQLDAMMGQP,not soluble
7,AVQRAKEVLEEISCYPENNDAKELKRILTQPHFMALLQTHDVVAHEVYSD,soluble
8,MGHDIDQVAPLLREPANFQLRTNCDPHEDNFGLRAHGPLVRIVGESSTQLGRDFVWQAHGYEVVRRILGDHEHFTTRPQFTQSKSGAHVEAQFVGQISTYDPPEHTRLRKMLTPEFTVRRIRRMEPAIQSLIDDRLDLLEAEGPSADLQGLFADPVGAHALCELLGIPRDDQREFVRRIRRNADLSRGLKARAADSAAFNRYLDNLLARQRADPDDGLLGMIVRDHGDNVTDEELKGLCTALILGGVETVAGMIGFGVLALLDNPGQIELLFESPEKAERVVNELVRYLSPVQAPNPRLAIKDVVIDGQLIKAGDYVLCSILMANRDEALTPDPDVLDANRAAVSDVGFGHGIHYCVGAALARSMLRMAYQTLWRRFPGLRLAVPIEEVKYRSAFVDCPDQVPVTW,soluble
9,MSTLELHHIGKSYQSVMVLDRIDLHVPPGSRTAIVGPSGSGKTTLLRIIAGFETPDAGKVILQGKAMFDGTTYVPAHKRGIGFVPQDGALFPHFTVAGNIGYGLKGSQRDKERRINELMDMVALDRRLSALWPHEISGGQQQRVALARALAQRPVLMLLDEPFSALDTALRASTRKAVAELLSEANIASILVTHDQTEALSFADQVAVMRAGKLAHVGPPQELYLRPVDEPTATFLGETLMLTAQLGTGLAHCALGQVKVDNPHRRGEARIMLRPEQITLTPLRPEQYNAASCLAKVIAIDFAGFISTLTLQIISSGETIEIKTISREDLHVGLTVGLDIMGQAHIFAE,not soluble
10,MAHTTGENLFTMKRVLRNLEADHDALREALADGRRMRDLLPYGDYINRYRNLTRDPMVVAIHKQFHESGLGGLTIDESMFPLSLRFEDDDVTLVFRRPEGFRHGTNEESSQRPLIERRSRIVLFWKYAEPGTDALKRISLQMFDNEGPLEEATMLSEKIPLLTKPESLTTAMFIPTHADEPRFVFGS,not soluble
11,MGSDKIHHHHHHMEYNDVVEAVISALKKAHTELPEDVVTAIKKAYDSEENDIAKRNLEAILKNIEAAKKLGVPMCQDTGIPVFFVEVGRELCLDFDLKEAIVEGVRKATAEIPLRPNAVHPITRENSGDNTGLGIPQINVELVKGDELRMVVMPKGAGSENVSALKMMLPTQVDKIKDFVVETVKNAGGKPCPPIFVGVGVGSTFDGAAKLAKKALLRNVLEMNDFELELLEAVNELGIGAMGLGGKYTALAVLVEFGHCHTASLPVAVNIQCWANRRAEVVLR,not soluble
12,MGKRNLDETMNESTVSEANGDATAPTTEKDEYQALCELVNPIAQPLANRKLAKKVYKLIKKASAGDKTLREGIKDVQKELRRNEKGICILAGNVSPIDVYSHIPGICEEKEIPYVYIPSREQLGLAVGHRRPSILIFVKPSGDFKELYDEVAEALRHLTVEAA,not soluble
13,MGHHHHHHSHMVKMEPENKYLPELMAEKDSLDPSFTHAMQLLTAEIEKIQKGDSKKDDEENYLDLFSHKNMKLKERVLIPVKQYPKFNFVGKILGPQGNTIKRLQEETGAKISVLGKGSMRDKAKEEELRKGGDPKYAHLNMDLHVFIEVFGPPCEAYALMAHAMEEVKKFLVPDMMDDICQEQFLELSYLNG,soluble
14,MPSFREDALSRIRHDGDFDAVVIGGGINGIAAYRDLALQGLRVLLVERNDFSSGCSAAPSRMIHGGLRYLENGEFGLVAESLRERDALLTLAPHMVQPLPTTIPIFSMFSGLFNAAATFFGSGGKPASRGALAIKAGLTLYDFVTRKNRLLPRHEFRGAGKTLKRWPGLTPDIRYSATYYDAWISQPERLALELLIDTSADAPQSIALNYAELVRNGDEYHIRAEETDETLPIRPRIIVNATGAWIDETIGTLSAGPAAEKQKPTVSGTKGSHLIIANDGLLKALNGHMIFFENADNRVCILFPYLGRVLAGSTDIKVDRPERVRCEPDERDYILDAIRQVFPDITVDHSDIVFSFSGIRPLPRSDAAFTGRISRSHFIHRVAGDPPQLCMIGGKWTTFRAFGEQVSDEVLAFLGRKRLTGTMNRPIGGGRNFPTGAGRLPALLSEQFSIDRRRAQHLALAYGSRAFELMGFCRGRPDDAPLSQKSPITAAEILWLIRCEHVRHLTDLILRRTTLAIAGLIDADLIDAILGVAARELGWTPTRAAVERQQLTQELETFYGVTPAMLQNRCKENALEHHHHHH,soluble
15,MSLQIKDEILSLLKRGKNLLAFSYGSDSSVLFYLLMQEKIDFDLVMINYKTRKNSDLEELKAKELALKFHKKIFIKHAPKFQSNFEKKARDFRYDFFEKICLEQGYDHLILAHHLNDQFEWFLMQLSRGAGLAEILGMQECEKRSNYTLLRPLLFISKDEISSFLKEKDIFYFHDESNENEKYFRNYIRKNFSNAFVSEFHQGLKRSFSYLDEDRKKLYDFENIKEIQGLLICPKNESLIARAVKMKGLLLSTAQRKELLKGDCVLGGKIALAYKNEQAIVFEYETCQKLPKNFKEECRIAKIPRLLRAYLYNHKIDISSLSEGHHHHHH,soluble
16,MENKEVIIIGAGAAGVGMGVALKDFGINNFAILERKQVGNSFIKWPEQTRFITPSFTSNGFGMPDLNAIAIDTSPSYTLGEERLSGKDYAKYLQLVSEEYKLPIKTNCKVQSIKKEKTGYLLETTKGFIYAEYVIFAMGEFSFPNKSSIKGAYKNSLHYGEINSWIEIKGDKQTIIGGNESAIDAAIELAKLGKRVTIYTDTLGLNIRDADPSKRLAPRTRQRFFDLRVNQKKLDSIKIYTTTKVKKIEKKSTSYILITENGKSLPVENIPILCTGFKNGTKSITASLFKYKENGEVLLNDFDESTIAKNIFLTGPNVRKGNTIFCYIYKFRQRFAVIANEIARRKHITIDEKKLSYYKNQSFYLDGCSGCEVRCSCLEHHHHHH,soluble
17,MSLTKDLLSELIQKHRSFNLSYSAYKQLYEGDHAILQQKQKEQYKPDNRLVVNFAKYIVDTFNGYFIGVPVQTSHENKQVSNYLELLDGYNDQDDNNAELSKICSIYGHGYELVFNDENAEVGITYLTPLEGFIVYDDSIRQKPLFAVRYFYNKDGVLEGSYSDASKITYFKDGEKDLEIGESDPHPFDGVPMIEYVENEERQSLLASVVTLINAFNKAISEKANDVEYFADAYLKILGAELDDETLKSLRDTRIINLKDTDAQQLTVEFLQKPDADATQEHLLDRLENLIFRTAMVANISDESFGTASGIALRYRLQAMDNLAKTKERKFMSGMNRRYKLIASYPTSKIGPKDWIGIKYKFTRNLPANLLEESQIAGNLAGIVSEETQVGVLSIVENPQKEIEKKNSDRPTLISRKAGGLNGQDTTTVLEGHHHHHH,not soluble
18,DDAAIKRKLQSFNISNIVIKSSPISGIKTAVTDQGILYVSEDGKYLFEGKLYELTNNGPVDVAGKILVDKLNSYKDEMIVYPAKNEKHVVTVFMDITCHYCHLLHQQLKEYNDLGITVRYLAFPRAGMNNQTAKQMEAIWTAKDPVFALNEAEKGNLPKEVKTPNIVKKHYELGIQFGVRGTPSIVTSTGELIGGYLKPADLLRALEETAQ,soluble
19,MSLPEHTPSDRLALDAMLGKLATYLRMCGYDTAYALDRDAEADDDLLDIAEREDRLVITRDSDLATRAPESVLLSEREIEDQLRELADAGFRLSLAPEPDYCGVCNSPVEEVDPVEPTPEYAPSAGDERVWRCTDCGQHFWKGSHWASVEATLEDVEGHHHHHH,soluble
20,MQVMFYSPSGQKLFGENGSPAFLLKGGITDLKGAIEARTTVIPEVPGQVFDGVTIKPFTFGVTMVVYPTKEMPMEKAMRKTRQIFSAFDYSTCRIDGTGIPVGLKVRLDSIISAPSQDTAKEIAEEITITLAADEGIFWADRKEASGKIDIVNYGDCDLWPEYRWQKTTTITLPSGAKINLPETPTPRVLRTTRHQVSITDLDGKPDRELLKKLGTVWPEGVPRKETKTYEITQNGYIMWRIGYLDPWGL,not soluble
